Publication PMC11117474
One block for each molecule: values may come before it.

Columns and labels:
[1] = biological target: RYBP (RING1A and YY1 binding protein) (UniProt Q8N488); experiment: other fluorescence titration; ARM-PKP1 0-20 uM added to fixed RYBP 4.6 uM; 25 °C; 20 mM Tris pH 7.5, 5 mM TCEP, 150 mM NaCl; fluorescence at 330 nm; fit with ligand depletion
NUPR1 (Homo sapiens) = NUPR1 (Homo sapiens) (UniProt O60356); details: cited from earlier work
[2] = biological target: armadillo-repeat domain of plakophilin 1 (ARM-PKP1); experiment: ITC; RYBP (100 uM) in the syringe titrated into ARM-PKP1 (10 uM) in the cell; 25 °C; 20 mM Tris pH 7.5, 5 mM TCEP, 150 mM NaCl; single binding site model

Sequence of UniProt O60356 (O60356 whole entry, the tested form may be a part): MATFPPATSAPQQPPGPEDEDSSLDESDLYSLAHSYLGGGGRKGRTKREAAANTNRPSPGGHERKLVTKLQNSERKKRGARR

Kd [1]: 9 µM
Molecule: armadillo-repeat domain of plakophilin 1 (ARM-PKP1) (domain or fragment)

Molecule: Plakophilin 1 ARM domain (from UniProt Q13835)
Kd (NUPR1 (Homo sapiens)): 10 µM

Kd [2]: 12 µM
dH [2]: -11.9 kcal/mol
stoichiometry N [2]: 1
B1: RYBP (RING1A and YY1 binding protein) (natural protein)
chain: MTMGDKKSPTRPKRQAKPAADEGFWDCSVCTFRNSAEAFKCSICDVRKGTSTRKPRINSQLVAQQVAQQYATPPPPKKEKKEKVEKQDKEKPEKDKEISPSVTKKNTNKKTKPKSDILKDPPSEANSIQSANATTKTSETNHTSRPRLKNVDRSTAQQLAVTVGNVTVIITDFKEKTRSSSTSSSTVTSSAGSEQQNQSSSGSESTDKGSSRSSTPKGDMSAVNDESF
